From paper doi:10.1101/827691

Biological target: α1-subCD3 as used in cross-linking and NMR (apparent molecular weight 27 kDa) (human) (UniProt P05023)
Assay: cross-linking

N-terminally His6-tagged FGF2 (18 kDa isoform), wild type (from UniProt P09038-2 1-155) (natural protein)
stoichiometry N (FGF2 per α1-subCD3): 1
